Measured values as given in patent publication US20150064134A1.

Legend:
Test in all cases: cell-based or functional assay
ZIPK(h) (human) = ZIPK(h) (human) (UniProt O43293)
CDK3/cyclinE(h) (human) = CDK3/cyclinE(h) (human) (UniProt Q00526)
mTOR(h) (human) = mTOR(h) (human) (UniProt P42345)
GRK7(h) (human) = biological target: T1, GRK7(h) (human) (UniProt Q8WTQ7)
T1 sequence (looked up): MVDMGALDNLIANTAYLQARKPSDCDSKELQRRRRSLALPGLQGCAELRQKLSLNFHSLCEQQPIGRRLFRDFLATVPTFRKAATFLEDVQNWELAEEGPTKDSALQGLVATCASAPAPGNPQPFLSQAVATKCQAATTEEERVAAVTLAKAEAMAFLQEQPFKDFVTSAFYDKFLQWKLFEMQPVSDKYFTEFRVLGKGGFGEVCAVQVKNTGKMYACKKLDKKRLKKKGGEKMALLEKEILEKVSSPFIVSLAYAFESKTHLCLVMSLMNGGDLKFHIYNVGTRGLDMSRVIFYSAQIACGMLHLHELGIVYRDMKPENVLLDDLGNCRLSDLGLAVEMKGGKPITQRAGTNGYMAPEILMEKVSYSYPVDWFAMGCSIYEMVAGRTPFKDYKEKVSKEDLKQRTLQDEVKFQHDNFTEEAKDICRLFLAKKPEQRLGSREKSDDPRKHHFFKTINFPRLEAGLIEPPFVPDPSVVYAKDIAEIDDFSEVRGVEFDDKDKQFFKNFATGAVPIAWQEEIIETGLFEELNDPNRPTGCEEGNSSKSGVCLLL

SAPK2a(T106M)(h) (human) = SAPK2a(T106M)(h) (human) (UniProt Q16539)
Sequence of SAPK2a(T106M)(h) (human) (Q16539 whole entry T106M): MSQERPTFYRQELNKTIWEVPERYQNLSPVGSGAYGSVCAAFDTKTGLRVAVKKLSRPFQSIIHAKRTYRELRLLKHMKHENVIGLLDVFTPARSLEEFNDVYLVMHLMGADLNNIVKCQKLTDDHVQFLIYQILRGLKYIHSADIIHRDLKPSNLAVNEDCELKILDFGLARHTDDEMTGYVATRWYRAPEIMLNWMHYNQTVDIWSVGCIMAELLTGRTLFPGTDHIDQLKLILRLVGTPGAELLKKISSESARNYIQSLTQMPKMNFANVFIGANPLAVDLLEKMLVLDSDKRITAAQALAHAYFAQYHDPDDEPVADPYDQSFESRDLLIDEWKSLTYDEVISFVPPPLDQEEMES

CaMKIIγ(h) (human) = CaMKIIγ(h) (human) (UniProt Q13555)
Sequence of CaMKIIγ(h) (human) (Q13555 whole entry): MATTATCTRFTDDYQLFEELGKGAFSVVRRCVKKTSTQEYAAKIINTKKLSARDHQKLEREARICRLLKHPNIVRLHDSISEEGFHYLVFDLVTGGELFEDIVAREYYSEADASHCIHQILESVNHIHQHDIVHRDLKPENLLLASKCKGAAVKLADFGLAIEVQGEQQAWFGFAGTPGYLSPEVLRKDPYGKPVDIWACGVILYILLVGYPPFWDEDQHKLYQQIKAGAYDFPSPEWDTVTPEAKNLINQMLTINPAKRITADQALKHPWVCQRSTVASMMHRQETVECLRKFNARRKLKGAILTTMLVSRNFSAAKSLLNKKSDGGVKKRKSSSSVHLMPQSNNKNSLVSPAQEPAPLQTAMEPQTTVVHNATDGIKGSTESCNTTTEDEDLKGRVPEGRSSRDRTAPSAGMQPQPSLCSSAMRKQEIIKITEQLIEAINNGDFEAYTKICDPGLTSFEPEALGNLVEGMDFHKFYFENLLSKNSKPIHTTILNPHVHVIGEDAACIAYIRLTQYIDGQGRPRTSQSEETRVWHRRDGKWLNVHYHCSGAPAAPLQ

Rsk2(h) (human) = Rsk2(h) (human) (UniProt P51812)
Sequence of Rsk2(h) (human) (P51812 whole entry): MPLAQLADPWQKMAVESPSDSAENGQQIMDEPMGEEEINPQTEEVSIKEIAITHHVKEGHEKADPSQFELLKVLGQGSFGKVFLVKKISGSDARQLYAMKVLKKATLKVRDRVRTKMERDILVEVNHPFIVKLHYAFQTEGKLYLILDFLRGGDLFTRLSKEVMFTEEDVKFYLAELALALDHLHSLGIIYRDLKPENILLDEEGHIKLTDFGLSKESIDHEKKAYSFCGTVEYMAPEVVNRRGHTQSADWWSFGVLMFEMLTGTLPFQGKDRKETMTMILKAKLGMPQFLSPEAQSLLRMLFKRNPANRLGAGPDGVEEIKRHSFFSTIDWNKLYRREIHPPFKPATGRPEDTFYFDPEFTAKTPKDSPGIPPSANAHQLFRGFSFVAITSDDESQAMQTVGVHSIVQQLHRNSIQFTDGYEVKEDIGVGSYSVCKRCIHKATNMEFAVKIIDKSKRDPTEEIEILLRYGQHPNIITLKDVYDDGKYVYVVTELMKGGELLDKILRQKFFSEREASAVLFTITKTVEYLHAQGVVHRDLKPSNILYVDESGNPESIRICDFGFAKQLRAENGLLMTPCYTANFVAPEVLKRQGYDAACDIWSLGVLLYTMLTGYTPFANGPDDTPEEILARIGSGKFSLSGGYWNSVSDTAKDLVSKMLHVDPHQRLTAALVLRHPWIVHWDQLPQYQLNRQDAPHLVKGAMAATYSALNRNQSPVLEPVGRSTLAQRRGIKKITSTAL

CDK2/cyclinE(h) (human) = CDK2/cyclinE(h) (human) (UniProt P24941)
Flt4(h) (human) = Flt4(h) (human) (UniProt P35916)
Sequence of Flt4(h) (human) (P35916 800-1363 limits assumed): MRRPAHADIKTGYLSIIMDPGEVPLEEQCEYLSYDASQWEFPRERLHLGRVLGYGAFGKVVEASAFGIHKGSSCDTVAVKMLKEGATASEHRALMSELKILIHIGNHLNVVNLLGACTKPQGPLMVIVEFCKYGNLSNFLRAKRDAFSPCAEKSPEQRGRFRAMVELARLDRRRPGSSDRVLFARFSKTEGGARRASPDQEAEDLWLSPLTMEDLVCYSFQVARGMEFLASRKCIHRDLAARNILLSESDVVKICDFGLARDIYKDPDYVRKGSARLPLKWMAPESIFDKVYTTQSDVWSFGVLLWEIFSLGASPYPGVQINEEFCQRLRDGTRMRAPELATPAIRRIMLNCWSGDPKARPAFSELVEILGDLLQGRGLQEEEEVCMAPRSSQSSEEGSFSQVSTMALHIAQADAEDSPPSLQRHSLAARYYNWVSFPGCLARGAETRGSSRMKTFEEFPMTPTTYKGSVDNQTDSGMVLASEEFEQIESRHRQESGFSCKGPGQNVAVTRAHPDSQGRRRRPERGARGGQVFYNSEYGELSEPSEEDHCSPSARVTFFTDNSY

Lyn(h) (human) = Lyn(h) (human) (UniProt P07948)
CHK2(R145W)(h) (human) = CHK2(R145W)(h) (human) (UniProt O96017)
Sequence of CHK2(R145W)(h) (human) (O96017 5-543 R145W limits assumed): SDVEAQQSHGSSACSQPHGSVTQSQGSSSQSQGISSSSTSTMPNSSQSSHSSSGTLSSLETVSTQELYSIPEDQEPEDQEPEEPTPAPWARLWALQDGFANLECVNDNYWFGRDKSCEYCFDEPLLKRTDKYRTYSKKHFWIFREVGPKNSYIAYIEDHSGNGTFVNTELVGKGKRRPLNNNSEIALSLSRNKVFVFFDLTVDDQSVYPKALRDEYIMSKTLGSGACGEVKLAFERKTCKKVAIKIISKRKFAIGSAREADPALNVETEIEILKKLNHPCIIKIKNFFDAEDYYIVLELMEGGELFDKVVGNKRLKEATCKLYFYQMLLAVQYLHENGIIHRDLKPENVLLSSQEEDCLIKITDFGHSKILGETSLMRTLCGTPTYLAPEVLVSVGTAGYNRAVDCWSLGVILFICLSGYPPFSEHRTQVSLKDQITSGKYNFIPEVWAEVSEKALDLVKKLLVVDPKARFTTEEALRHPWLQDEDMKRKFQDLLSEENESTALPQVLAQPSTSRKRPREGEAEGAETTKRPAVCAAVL

DCAMKL2(h) (human) = biological target: T2, DCAMKL2(h) (human) (UniProt Q8N568)
T2 sequence (looked up): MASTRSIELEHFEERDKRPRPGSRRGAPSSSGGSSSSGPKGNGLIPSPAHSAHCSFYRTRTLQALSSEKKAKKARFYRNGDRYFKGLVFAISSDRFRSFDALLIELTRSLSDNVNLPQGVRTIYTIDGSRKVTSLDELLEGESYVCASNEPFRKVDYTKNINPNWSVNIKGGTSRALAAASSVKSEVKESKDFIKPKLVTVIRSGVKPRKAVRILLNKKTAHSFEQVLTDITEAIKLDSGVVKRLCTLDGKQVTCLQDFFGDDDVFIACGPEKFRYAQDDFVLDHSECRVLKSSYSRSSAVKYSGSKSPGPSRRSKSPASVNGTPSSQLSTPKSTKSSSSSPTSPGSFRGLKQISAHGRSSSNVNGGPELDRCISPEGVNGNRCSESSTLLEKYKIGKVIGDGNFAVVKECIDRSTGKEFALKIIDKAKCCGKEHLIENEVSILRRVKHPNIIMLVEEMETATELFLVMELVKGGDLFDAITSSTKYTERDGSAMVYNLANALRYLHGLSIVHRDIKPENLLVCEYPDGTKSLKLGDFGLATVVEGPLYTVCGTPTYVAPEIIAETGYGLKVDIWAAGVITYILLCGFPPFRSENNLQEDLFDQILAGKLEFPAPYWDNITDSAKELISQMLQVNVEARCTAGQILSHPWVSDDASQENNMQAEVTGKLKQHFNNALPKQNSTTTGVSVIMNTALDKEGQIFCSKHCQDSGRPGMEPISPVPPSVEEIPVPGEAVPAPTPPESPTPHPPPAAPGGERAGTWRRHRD

IKKβ(h) (human) = biological target: T3, IKKβ(h) (human) (UniProt O14920)
T3 sequence (looked up): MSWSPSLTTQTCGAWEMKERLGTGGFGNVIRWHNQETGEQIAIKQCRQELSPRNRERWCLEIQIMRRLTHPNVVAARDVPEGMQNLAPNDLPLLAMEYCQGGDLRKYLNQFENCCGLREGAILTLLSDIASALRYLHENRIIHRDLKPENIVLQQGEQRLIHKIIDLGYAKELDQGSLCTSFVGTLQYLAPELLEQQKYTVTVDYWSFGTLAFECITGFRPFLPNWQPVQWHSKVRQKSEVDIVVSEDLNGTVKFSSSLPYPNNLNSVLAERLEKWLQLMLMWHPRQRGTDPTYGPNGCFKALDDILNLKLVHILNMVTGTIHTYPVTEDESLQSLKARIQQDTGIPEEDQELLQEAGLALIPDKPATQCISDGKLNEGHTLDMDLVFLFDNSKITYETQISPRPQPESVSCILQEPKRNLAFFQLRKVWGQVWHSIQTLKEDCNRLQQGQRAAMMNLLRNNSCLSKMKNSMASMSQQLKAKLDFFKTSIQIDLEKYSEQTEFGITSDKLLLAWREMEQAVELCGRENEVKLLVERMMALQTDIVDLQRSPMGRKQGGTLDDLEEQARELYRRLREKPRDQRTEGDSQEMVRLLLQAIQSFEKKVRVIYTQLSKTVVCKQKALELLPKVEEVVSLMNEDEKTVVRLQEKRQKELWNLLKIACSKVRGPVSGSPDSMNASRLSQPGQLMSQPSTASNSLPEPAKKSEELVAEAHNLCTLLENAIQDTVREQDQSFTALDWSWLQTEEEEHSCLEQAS

MINK(h) (human) = MINK(h) (human) (UniProt Q8N4C8)
CDK6/cyclinD3(h) (human) = CDK6/cyclinD3(h) (human) (UniProt Q00534)
Sequence of CDK6/cyclinD3(h) (human) (Q00534 whole entry, chain 1 of 2): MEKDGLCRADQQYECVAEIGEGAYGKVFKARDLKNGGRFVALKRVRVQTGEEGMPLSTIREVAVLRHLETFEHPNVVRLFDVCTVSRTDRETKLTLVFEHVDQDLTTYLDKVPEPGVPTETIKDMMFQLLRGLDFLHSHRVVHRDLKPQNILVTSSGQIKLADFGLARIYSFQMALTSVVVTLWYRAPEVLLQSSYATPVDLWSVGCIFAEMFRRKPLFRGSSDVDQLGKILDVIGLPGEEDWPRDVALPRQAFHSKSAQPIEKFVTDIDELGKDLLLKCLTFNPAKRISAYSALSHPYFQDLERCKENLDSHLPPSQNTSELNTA
Sequence of CDK6/cyclinD3(h) (human) (P30281 whole entry, chain 2 of 2, further chain): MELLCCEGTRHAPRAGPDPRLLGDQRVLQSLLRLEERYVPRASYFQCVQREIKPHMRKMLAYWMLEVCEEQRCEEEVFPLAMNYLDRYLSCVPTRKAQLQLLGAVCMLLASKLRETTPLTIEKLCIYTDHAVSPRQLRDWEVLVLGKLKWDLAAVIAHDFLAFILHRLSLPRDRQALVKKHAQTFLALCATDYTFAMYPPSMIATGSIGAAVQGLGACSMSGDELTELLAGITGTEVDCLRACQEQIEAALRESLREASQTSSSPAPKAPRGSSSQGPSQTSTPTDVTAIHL

Sequence of mTOR(h) (human) (P42345 1362-2549 limits assumed): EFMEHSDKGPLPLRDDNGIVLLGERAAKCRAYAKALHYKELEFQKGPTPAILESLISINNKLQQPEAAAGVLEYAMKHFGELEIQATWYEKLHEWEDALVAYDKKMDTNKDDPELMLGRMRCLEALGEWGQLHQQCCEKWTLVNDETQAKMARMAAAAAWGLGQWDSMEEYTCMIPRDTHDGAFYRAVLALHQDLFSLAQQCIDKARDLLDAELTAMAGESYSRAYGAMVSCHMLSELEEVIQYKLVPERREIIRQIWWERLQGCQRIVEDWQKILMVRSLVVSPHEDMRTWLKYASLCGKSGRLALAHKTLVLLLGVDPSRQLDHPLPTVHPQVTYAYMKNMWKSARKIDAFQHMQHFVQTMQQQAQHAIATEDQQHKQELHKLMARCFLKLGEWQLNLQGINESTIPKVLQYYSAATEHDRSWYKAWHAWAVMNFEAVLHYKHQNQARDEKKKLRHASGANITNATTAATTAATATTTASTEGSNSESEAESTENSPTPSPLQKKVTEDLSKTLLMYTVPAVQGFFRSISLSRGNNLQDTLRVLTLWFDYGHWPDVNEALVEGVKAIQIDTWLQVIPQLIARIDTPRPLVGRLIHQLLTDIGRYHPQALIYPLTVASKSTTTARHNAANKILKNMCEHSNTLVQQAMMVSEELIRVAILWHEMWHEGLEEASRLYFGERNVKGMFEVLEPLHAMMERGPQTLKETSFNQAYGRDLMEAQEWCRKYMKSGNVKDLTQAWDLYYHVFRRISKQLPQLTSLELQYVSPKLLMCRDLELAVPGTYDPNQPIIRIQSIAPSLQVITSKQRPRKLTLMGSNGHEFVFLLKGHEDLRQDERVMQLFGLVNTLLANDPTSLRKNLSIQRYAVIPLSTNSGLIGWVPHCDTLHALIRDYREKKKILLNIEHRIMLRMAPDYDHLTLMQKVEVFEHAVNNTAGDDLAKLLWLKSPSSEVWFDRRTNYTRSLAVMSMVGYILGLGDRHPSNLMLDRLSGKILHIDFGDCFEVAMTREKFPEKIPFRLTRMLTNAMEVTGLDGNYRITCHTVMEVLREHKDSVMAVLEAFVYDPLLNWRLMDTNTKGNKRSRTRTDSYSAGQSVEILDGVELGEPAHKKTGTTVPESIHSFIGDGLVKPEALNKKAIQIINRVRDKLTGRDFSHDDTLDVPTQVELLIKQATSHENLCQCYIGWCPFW

% activity at 100 µM (ZIPK(h) (human)) [%] | % activity at 100 µM (CDK3/cyclinE(h) (human)) [%] | % activity at 100 µM (mTOR(h) (human)) [%] | % activity at 100 µM (GRK7(h) (human)) [%] | % activity at 100 µM (SAPK2a(T106M)(h) (human)) [%] | % activity at 100 µM (CaMKIIγ(h) (human)) [%] | % activity at 100 µM (Rsk2(h) (human)) [%] | % activity at 100 µM (CDK2/cyclinE(h) (human)) [%] | % activity at 100 µM (Flt4(h) (human)) [%] | % activity at 100 µM (Lyn(h) (human)) [%] | % activity at 100 µM (CHK2(R145W)(h) (human)) [%] | % activity at 100 µM (DCAMKL2(h) (human)) [%] | % activity at 100 µM (IKKβ(h) (human)) [%] | % activity at 100 µM (MINK(h) (human)) [%] | % activity at 100 µM (CDK6/cyclinD3(h) (human)) [%] | Substance
28 | 94 | 91 | 122 | 97 | 5 | 51 | 94 | 83 | 69 | 33 | 81 | 84 | 48 | 86 | MMI-0300 (peptide)
13 | 92 | 93 | 100 | 99 | 3 | 38 | 83 | 89 | 3 | 31 | 70 | 84 | 52 | 85 | MMI-0400 (peptide)
1 | 8 | 135 | 93 | 32 | 3 | 14 | 19 | 73 | 31 | 3 | 56 | 71 | 5 | 23 | MMI-0500 (peptide)
